Laboratory results published in paper PMC11067984.

Molecular target: CaV1.2 truncated at aa 1820, fused to YFP (CaV1.2^Δ1820-YFP) (UniProt P15381)

Distal C-terminal domain of CaV1.2 fused to Renilla luciferase (DCtermD-RLuc) (domain or fragment)
CDI fraction of CaV1.2^Δ1820 at 0 mV, without versus with DCtermD overexpressed: 0.03
